From patent US20060223099A1 (BAYLOR COLLEGE OF MEDICINE, published 2006)

Biological target: T1, SV40 large T-antigen (SV40, UniProt P03070 87-708)
T1 construct: Control partner in the yeast-two-hybrid assay; fusion construct not described
Assay: targeted yeast-two-hybrid, negative control

T1 sequence (P03070 87-708 limits assumed): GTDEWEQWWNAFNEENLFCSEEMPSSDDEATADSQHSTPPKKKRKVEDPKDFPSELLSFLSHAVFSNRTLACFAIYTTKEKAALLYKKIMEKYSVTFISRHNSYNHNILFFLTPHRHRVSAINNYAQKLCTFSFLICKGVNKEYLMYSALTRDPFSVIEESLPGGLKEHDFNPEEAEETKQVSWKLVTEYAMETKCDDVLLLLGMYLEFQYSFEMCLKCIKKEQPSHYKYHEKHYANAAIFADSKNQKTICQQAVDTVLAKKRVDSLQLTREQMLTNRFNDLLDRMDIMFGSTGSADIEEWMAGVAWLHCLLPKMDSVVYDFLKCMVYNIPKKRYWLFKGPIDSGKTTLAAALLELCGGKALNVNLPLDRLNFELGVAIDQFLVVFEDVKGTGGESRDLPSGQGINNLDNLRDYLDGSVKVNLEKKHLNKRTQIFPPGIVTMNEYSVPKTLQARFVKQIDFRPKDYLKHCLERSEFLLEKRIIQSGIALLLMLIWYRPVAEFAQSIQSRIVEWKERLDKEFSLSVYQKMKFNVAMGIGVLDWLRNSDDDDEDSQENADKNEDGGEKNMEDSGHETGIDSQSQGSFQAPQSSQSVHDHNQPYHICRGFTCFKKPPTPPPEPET

B1: human Lamin C (other)
chain: SEEVVSREVSGIKAAYEAELGDARKTLDSVAKERARLQLELSKVREEFKELKARNTKKEGDLIAAQARLKDLEALLNSKEAALSTALSEKRTLEGELHDLRGQVAKLEAALGEAKKQLQDEMLRRVDAENRLQTMKEELDFQKNIYSEELRETKRRHETRLVEID
notes: Negative-control partner in the yeast-two-hybrid assay; fusion construct not described
- binding result: no binding
